Measurements taken from patent US20250277038A1.

Tests used:
[1] = molecular target: human PD-L1 (Acro, Catalog Number: H5229) (human) (UniProt Q9NZQ7); assay: BLI, Octet RED96e, antibody on AHC sensor, antigen 100 nM, 1:1 fit
[2] = molecular target: human PD-L1 protein on HEK293 cell (human) (UniProt Q9NZQ7); assay: FACS blocking assay: antibody titrated against Biotin-PD-1-mFc on HEK293-hPD-L1 cells, SA488 detection
[3] = molecular target: monkey PD-L1 protein on CHOK1 cell (monkey (cyno)); assay: FACS blocking assay: antibody titrated against Biotin-PD-1-mFc on CHOK1-cynoPD-L1 cells, SA488 detection

human PD-L1 (Acro, Catalog Number: H5229) (human), sequence (Q9NZQ7 19-238 limits assumed): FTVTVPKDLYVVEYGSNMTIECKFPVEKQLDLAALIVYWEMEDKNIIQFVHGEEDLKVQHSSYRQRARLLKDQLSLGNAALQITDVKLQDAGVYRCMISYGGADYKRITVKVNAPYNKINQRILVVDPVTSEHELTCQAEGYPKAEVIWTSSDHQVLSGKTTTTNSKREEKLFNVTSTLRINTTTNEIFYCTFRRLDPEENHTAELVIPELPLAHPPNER
human PD-L1 protein on HEK293 cell (human), sequence (Q9NZQ7 19-290): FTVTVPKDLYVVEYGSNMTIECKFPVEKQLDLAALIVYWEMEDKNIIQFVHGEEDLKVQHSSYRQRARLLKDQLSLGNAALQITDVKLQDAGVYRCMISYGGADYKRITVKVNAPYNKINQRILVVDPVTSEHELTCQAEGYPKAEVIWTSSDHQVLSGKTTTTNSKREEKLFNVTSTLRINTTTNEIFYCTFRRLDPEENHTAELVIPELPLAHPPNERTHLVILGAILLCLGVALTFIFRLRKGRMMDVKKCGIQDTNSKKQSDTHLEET

Kd [1]: 484 pM | koff [1]: 0.000311 s⁻¹ | kon [1]: 644000 M⁻¹ s⁻¹ | IC50 (read off the curve) [2]: 0.08 µg/mL | IC50 (read off the curve) [3]: 0.9 µg/mL
Substance: Atezolimumab (antibody)
